# Source: the supplement of paper PMC10598134
# ± gives the standard deviation.
# Experiment: collision cross section of modified peptide (TIMS, N2, iRT-aligned); higher = larger / more extended gas-phase ion
# Protocol: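 1/K0 was aligned run-wise to spiked iRT peptides and converted to CCS in N2 (Mason-Schamp). Values are the mean of 1-3 technical replicates for the most abundant feature at each charge state.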
# [1] = charge state: 2, modification: Succinyl
# [2] = charge state: 3, modification: Succinyl
# [3] = charge state: 2, modification: Nitro (Y)
# [4] = charge state: 2, modification: Phospho (Y)
# [5] = charge state: 3, modification: Phospho (Y)
# [6] = charge state: 3, modification: Dimethyl (K)
# [7] = charge state: 2, modification: Trimethyl (K)
# [8] = charge state: 3, modification: Trimethyl (K)
# [9] = charge state: 2, modification: GlyGly (K)
# [10] = charge state: 3, modification: GlyGly (K)
# [11] = charge state: 2, modification: Hydroxyproline
# [12] = charge state: 2, modification: Malonyl
# [13] = charge state: 2, modification: Acetyl (K)
# [14] = charge state: 2, modification: Dimethyl (K)
# [15] = charge state: 2, modification: Methyl (K)
# [16] = charge state: 3, modification: Methyl (K)
# [17] = charge state: 2, modification: Glutarylation
# [18] = charge state: 3, modification: Glutarylation
# [19] = charge state: 3, modification: Malonyl
# [20] = charge state: 2, modification: hydroxyisobutyryl
# [21] = charge state: 2, modification: Formyl
# [22] = charge state: 3, modification: hydroxyisobutyryl
# [23] = charge state: 2, modification: Crotonyl
# [24] = charge state: 3, modification: Crotonyl
# [25] = charge state: 3, modification: Hydroxyproline
# [26] = charge state: 3, modification: Methyl (R)
# [27] = charge state: 2, modification: Butyryl
# [28] = charge state: 3, modification: Butyryl
sequence,measurement,setting,value
IVEKYGYTHLSAGELLR [_IVEK(Succinyl)YGYTHLSAGELLR_],collision cross section,[1],498.62 ± 0.45 Å²
same,collision cross section,[2],565.13 ± 1.1 Å²
PDTQYTGR [_PDTQY(Nitro (Y))TGR_],collision cross section,[3],325.57 ± 0.55 Å²
HIGFVYHPTK [_HIGFVY(Phospho (Y))HPTK_],collision cross section,[4],384.4 ± 0.77 Å²
same,collision cross section,[5],458.98 ± 1.8 Å²
VSPASSVDSNIPSSQGYKK [_VSPASSVDSNIPSSQGYK(Dimethyl (K))K_],collision cross section,[6],536.37 ± 0.42 Å²
GGSAGGRGFFR [_GGSAGGR(Citrullination (R))GFFR_],collision cross section,"charge state: 2, modification: Citrullination (R)",340.82 ± 0.52 Å²
PASGAGAGAGAGKR [_PASGAGAGAGAGK(Trimethyl (K))R_],collision cross section,[7],392.96 ± 2.2 Å²
same,collision cross section,[8],465.02 ± 1.8 Å²
VNVEAPDVNLEGLGGKLK [_VNVEAPDVNLEGLGGK(GlyGly (K))LK_],collision cross section,[9],470.77 ± 1.4 Å²
same,collision cross section,[10],551.19 ± 1.1 Å²
LGPPGNPGPSGSPGPKGQK [_LGPPGNPGPSGSP(Hydroxyproline)GPKGQK_],collision cross section,[11],423.7 ± 3 Å²
IGNSYFKEEK [_IGNSYFK(Malonyl)EEK_],collision cross section,[12],378.34 Å²
TVSKVDDFLANEAK [_TVSK(Acetyl (K))VDDFLANEAK_],collision cross section,[13],417.71 ± 1.3 Å²
DDSFLGKLGGTLAR [_DDSFLGK(Dimethyl (K))LGGTLAR_],collision cross section,[14],416.68 ± 0.75 Å²
same,collision cross section,[6],473.5 ± 1.2 Å²
AGPNASIISLKSDK [_AGPNASIISLK(GlyGly (K))SDK_],collision cross section,[9],420.97 ± 0.85 Å²
same,collision cross section,[10],488.88 ± 2 Å²
VPTTEKPTVTVNFR [_VPTTEK(Methyl (K))PTVTVNFR_],collision cross section,[15],426.88 Å²
same,collision cross section,[16],510.49 ± 2 Å²
DVNAAIAAIKTK [_DVNAAIAAIK(Gluratylation)TK_],collision cross section,[17],410.15 ± 0.99 Å²
same,collision cross section,[18],471.67 ± 2.5 Å²
ITESVAETAQTIKK [_ITESVAETAQTIK(Malonyl)K_],collision cross section,[12],420.49 ± 0.57 Å²
same,collision cross section,[19],509.94 ± 1.1 Å²
TVSKVDDFLANEAK [_TVSK(hydroxyisobutyryl)VDDFLANEAK_],collision cross section,[20],426.08 ± 0.56 Å²
GTPGKPGPR [_GTPGKP(Hydroxyproline)GPR_],collision cross section,[11],308.55 Å²
DSSPTTNSKLSALQR [_DSSPTTNSK(Formyl)LSALQR_],collision cross section,[21],427.17 ± 1.8 Å²
same,collision cross section,"charge state: 3, modification: Formyl",491.37 ± 1.3 Å²
TTSYPTPRPYPKPAPSSGK [_TTSYPTPRPYPKPAPS(HexNAc (ST))SGK_],collision cross section,"charge state: 3, modification: HexNAc (ST)",526.67 Å²
IPQEKCILQTDVK [_IPQEK(GlyGly (K))CILQTDVK_],collision cross section,[9],446.01 ± 0.95 Å²
same,collision cross section,[10],482.94 ± 1.1 Å²
VLDSGAPIKIPVGPETLGR [_VLDSGAPIK(Malonyl)IPVGPETLGR_],collision cross section,[12],468.64 ± 1.6 Å²
same,collision cross section,[19],512.64 ± 6.2 Å²
TFGKAAGPSLSHTSGGTQSK [_TFGK(Trimethyl (K))AAGPSLSHTSGGTQSK_],collision cross section,[8],559.57 ± 0.94 Å²
TTGFYSGFSEVAEKR [_TTGFYSGFSEVAEK(Dimethyl (K))R_],collision cross section,[14],453.39 ± 1.3 Å²
same,collision cross section,[6],504.73 ± 0.75 Å²
DESFLGKLGGTLAR [_DESFLGK(Malonyl)LGGTLAR_],collision cross section,[12],413.79 ± 1.2 Å²
same,collision cross section,[19],487.95 Å²
AIQLNPSYIR [_AIQLNPSY(Nitro (Y))IR_],collision cross section,[3],380.21 ± 0.17 Å²
VVPGYGHAVLR [_VVPGY(Nitro (Y))GHAVLR_],collision cross section,[3],383.51 ± 0.17 Å²
same,collision cross section,"charge state: 3, modification: Nitro (Y)",449.51 ± 1.1 Å²
TSSEASVSSSVAK [_T(HexNAc (ST))SSEASVSSSVAK_],collision cross section,"charge state: 2, modification: HexNAc (ST)",394.41 ± 0.76 Å²
SGNLTEDDKHNNAK [_SGNLTEDDK(Trimethyl (K))HNNAK_],collision cross section,[7],419.32 ± 0.75 Å²
same,collision cross section,[8],469.66 ± 1.5 Å²
LEKTIDDLEEK [_LEK(Succinyl)TIDDLEEK_],collision cross section,[1],408.25 ± 0.55 Å²
LQNSYQPTNK [_LQNSY(Nitro (Y))QPTNK_],collision cross section,[3],362.69 ± 0.94 Å²
ANLEKAQAELVGTADEATR [_ANLEK(hydroxyisobutyryl)AQAELVGTADEATR_],collision cross section,[20],473.77 ± 6.8 Å²
same,collision cross section,[22],579.16 ± 1.2 Å²
AAINQKLIETGER [_AAINQK(Acetyl (K))LIETGER_],collision cross section,[13],403.07 ± 1 Å²
AEGYEVAHGGR [_AEGY(Phospho (Y))EVAHGGR_],collision cross section,[4],370.65 ± 0.064 Å²
same,collision cross section,[5],440.52 Å²
KFGVLSDNFK [_K(Succinyl)FGVLSDNFK_],collision cross section,[1],376.58 ± 0.24 Å²
GTVPDDAVEALADSLGKK [_GTVPDDAVEALADSLGK(Crotonyl)K_],collision cross section,[23],456.44 ± 0.38 Å²
same,collision cross section,[24],536.14 Å²
LGPPGNPGPSGSPGPKGQK [_LGPPGNP(Hydroxyproline)GPSGSPGPKGQK_],collision cross section,[25],472.87 ± 1.2 Å²
SGFGKFER [_SGFGK(GlyGly (K))FER_],collision cross section,[9],340.43 ± 0.74 Å²
SNEEGSEEKGPEVR [_SNEEGSEEK(Methyl (K))GPEVR_],collision cross section,[15],394.85 ± 7.3 Å²
same,collision cross section,[16],481.38 ± 2.6 Å²
TPSSFRQPFTPTSR [_TPSSFR(Methyl (R))QPFTPTSR_],collision cross section,[26],481.78 ± 1.9 Å²
IHNAENIQPGEQKYEYK [_IHNAENIQPGEQK(Gluratylation)YEYK_],collision cross section,[17],490.8 ± 1.2 Å²
same,collision cross section,[18],532.09 ± 1.1 Å²
DAIHFYNKSLAEHR [_DAIHFYNK(hydroxyisobutyryl)SLAEHR_],collision cross section,[22],512.82 ± 2.8 Å²
ATVASSTQKFQDLGVK [_ATVASSTQK(Butyryl)FQDLGVK_],collision cross section,[27],453.04 ± 1.1 Å²
same,collision cross section,[28],495.56 ± 1.9 Å²
VSPASSVDSNIPSSQGYKK [_VSPASSVDSNIPSSQGYK(GlyGly (K))K_],collision cross section,[9],469.54 ± 1.4 Å²
same,collision cross section,[10],521.06 ± 4.6 Å²
LLRGVGGSHGR [_LLR(Methyl (R))GVGGSHGR_],collision cross section,"charge state: 2, modification: Methyl (R)",374.24 Å²
same,collision cross section,[26],456.7 ± 11 Å²
SKHLQEQLNELK [_SK(Dimethyl (K))HLQEQLNELK_],collision cross section,[6],492.51 ± 0.54 Å²
VYIASSSGSTAIKK [_VYIASSSGSTAIK(Crotonyl)K_],collision cross section,[23],419.06 ± 0.81 Å²
same,collision cross section,[24],505.65 ± 0.46 Å²
LAEEENKAK [_LAEEENK(Dimethyl (K))AK_],collision cross section,[14],348.03 ± 0.59 Å²
same,collision cross section,[6],411.22 ± 2.8 Å²
RGATPPAPPRR [_R(Citrullination (R))GATPPAPPRR_],collision cross section,"charge state: 3, modification: Citrullination (R)",462.57 ± 1.3 Å²
GETASKLQSEISR [_GETASK(Succinyl)LQSEISR_],collision cross section,[1],399.77 ± 2 Å²
SGKFTQQDIDEAK [_SGK(Formyl)FTQQDIDEAK_],collision cross section,[21],408.45 ± 0.19 Å²
TPNLYIYSKK [_TPNLYIYSK(Gluratylation)K_],collision cross section,[17],398.57 ± 0.6 Å²
same,collision cross section,[18],451.21 ± 1.7 Å²
AAQASDLEKIHLDEK [_AAQASDLEK(Succinyl)IHLDEK_],collision cross section,[1],468.29 ± 1.1 Å²
same,collision cross section,[2],505.3 ± 1.6 Å²
LQDVSGQLSSSKK [_LQDVSGQLSSSK(Butyryl)K_],collision cross section,[27],401.39 ± 0.74 Å²
same,collision cross section,[28],476.47 ± 3.2 Å²
TTEETSKPK [_TTEETSK(Biotin)PK_],collision cross section,"charge state: 2, modification: Biotin",372.34 Å²
ALASIDSKLNQAK [_ALASIDSK(hydroxyisobutyryl)LNQAK_],collision cross section,[20],410.87 ± 9.2 Å²
SRGAIISQYYNR [_SR(Methyl (R))GAIISQYYNR_],collision cross section,[26],476.32 ± 1.6 Å²
GTITVSAQELKDNR [_GTITVSAQELK(Malonyl)DNR_],collision cross section,[12],419.75 ± 0.051 Å²
LYLPVQNK [_LY(Nitro (Y))LPVQNK_],collision cross section,[3],340.84 ± 0.55 Å²
PGLKGEQGEPGAPGIR [_PGLKGEQGEPGAP(Hydroxyproline)GIR_],collision cross section,[11],410.74 ± 0.55 Å²
same,collision cross section,[25],508.4 ± 1.3 Å²
ILDLKTGTVK [_ILDLK(Trimethyl (K))TGTVK_],collision cross section,[7],360.39 ± 1.1 Å²
VGTASVLQPVKK [_VGTASVLQPVK(Malonyl)K_],collision cross section,[12],381.57 ± 0.0073 Å²
KYEEIDNAPEER [_K(Acetyl (K))YEEIDNAPEER_],collision cross section,[13],408.98 ± 1.6 Å²
same,collision cross section,"charge state: 3, modification: Acetyl (K)",493.17 ± 8.3 Å²
GSLGAQKLANTCFNEIEK [_GSLGAQK(Butyryl)LANTCFNEIEK_],collision cross section,[27],475.25 ± 0.74 Å²
DHLSDKESK [_DHLSDK(Methyl (K))ESK_],collision cross section,[15],345.4 ± 1.5 Å²
same,collision cross section,[16],413.72 ± 4.7 Å²
SPDEAYAIAKK [_SPDEAYAIAK(Butyryl)K_],collision cross section,[27],376.59 ± 1.2 Å²
same,collision cross section,[28],446.36 ± 0.47 Å²
LTSLNVKYNNDK [_LTSLNVK(Crotonyl)YNNDK_],collision cross section,[23],414.39 ± 1.1 Å²
